Test: soluble on expression in E. coli; label from the status in PepcDB or PDB records

Sequence	soluble on expression in E. coli
MSTYLIGDIHGCLDELLALLAQVNFDPQQDTLWLTGDLVARGPASLDVLRYVRSLGPAVRMVLGNHDLHLLAVYAGISRNKPKDRITPLLDAPDADELINWLRRQPVLQVDDQLKLIMAHAGITPQWDIETAKMCAREVEAVLSSDSYPLFLDAMYGDMPNNWSPELTGLARLRFSTNALTRMRFCFPNGQLDMICKDTPENAPAPLKPWFDLPRLVDPEYSIIFGHWASLEGKGVPEGIYGLDTGCCWGGDLTLLRWDDKRYFTQRAFKAEAEINNNNGFAAGEAVQH	not soluble
MTQDDFFDLTPVEDFDSYDPLADTEDEEFDLEAPAESGMFLVEPGEFPTVDELASQAEALQQAPAAQRIATLFDHMERSRKILLGILEMCDGQVQPNELVISRIEKLKANNKSVYTPDNMCMMLVRAGALRRVTQDGTDYEDIEDTLEPKRVVIDGVEYLEPVQAPQICWLTTPEGSQVVAADQPRARLRELLENEPQYRHVFRTVLEMCAPDGGTTQKALSAALDNDPALMHPRMYAMRFAERLAQNDALEWRDNAWRITDIGSEGLDIIAELDAAEQADD	not soluble
MGSDKIHHHHHHMETSEILKKVRQIEIKTRGLSNNIFAGQYHSAFKGRGMSFSEVREYQFGDDIRDIDWNVTARFNKPYVKVFEEERELTVMLMVDVSGSLEFGTVKQLKKDMVTEIAATLAFSAIQNNDKIGVIFFSDRIEKFIPPKKGRKHILYIIRELIDFQPESRRTNIRLALEYLTNVMKRRCTAFILSDFIDQDNFKNALTIANRKHDVVALQVYDRRVSDLPPVGLMRIKDAETGHEQWIDTSSKAVRRAHRDWWINKQTELNDTFTKSNVDSVSVRTDQDYVKALLNLFAKRN	not soluble
MGSDKIHHHHHHGQNQNKIQEAMANYDYETAVELINKEPPTIPLLMQKAKALKGIGSNAEALRSIRQVIAEDSTNQQAHIEAAECCKAMAKYNDALDYYRKAISLNPKNKYARLQFINLLCNTKNYAEAFGESSMMSETDSSAVVLHLQAQSLEGMQQILPAIGCYEVIQDKYPDDYLAAAKLGNLNIVAGYPEYAIQATERYRERDSTNLIVNQQNALAYCHAEQYPTAIKRYEKLCQQGDSSTQTLYYLGVSYYADEYYYEAHACFSKLQKEMEENPNLLYYLGRCCAKTSWKKEGIEHLEKAIELTIPKDSTMIRLYKGLVDCCKLAQDTPKQIQALRELYKYDKTNHKLLYDIAWNYSYQLKDNKSAERYLQAFLKTRKANARKEEPVSEKGELVLGLENYYNAAENWLKDLQKEKFFKEGIPLESQKQ	not soluble
KPYTIDKANSSVWFEVKHFKFNETRGVFDSFDGKIDADPNTKALNVFEGKIDIKSINTRNKKRDDHLKTAEFFDVVKYPKGSFKMTKYEDGKIHGDLTLHGVTKPVVLEAKIQAPLQNPMNKKEFMVLQAEGKINRKDFGIGKTFSDAVVGDEVKIELKLEAYA	soluble
MKSKFFAQNRERLVNTLPDESITILFAGQAPHMSADAHYKFVPNRNFYYVTGIDEPNVIFMLKKFGNSVEETLFIEKSDPVMEKWVGKTVSNEEAEKISGIKKVIYLDSFEKTMSNIFFTENVKHLYLDLECREWKGTETKTLAFAKHVREQYPHVTIGNVYPNICELRVFKTDEEIEIIKEAIAVTKDGIYNVLKHAKADMMEYELEAQFDFTLKSSGIKHHAFNTILASGKNATVLHYEDNDAQIQNGDLVLLDLGAQKDYYNADISYTFPANGTFSSRQKQIYNIVLNALKETTEIIKPGLKFAALNEHAKKVLAEGCKAVGLIQEDEELSKYYYHGVSHFLGLDTHDVGTYKDRVLEEGMVITIEPGLYIEEESIGIRIEDDILVTKDGHENLSKDIIREVEEIEEFMRENNVNVKQDEVVTK	soluble
MSLKAAVLHGTNDMRFEDIEIKPCESDEVKIKVMAAGICGSDPPRVLKHWKYPVPAIPGHEFSGVIAEVGKDVKNVKVGDRVVAIPFIPCNECEYCKRGLFSLCDDHGMLGAKSFGAFAEYVNIKATNVLPIGDMDFEDAAMIEPLAVAMHGVLNIGVQVGDTVAVMGSGTMGQLVIQGLKIAGAGTIIAVDISDNKLRESKELGADIIINAKDINPVEKIKELTGGKGVDIALECAGSKITQEQCLLITKKKSKIGFLGIAYSDITLSEEAFENIFRKELELKGFWNSYSAPFPGQEWTKGINLVNEGKIKLKEMVSHRFSLEDTYKAFEMIRDRKEEFNKILILPQGVEGHHHHHH	soluble
MNYLLIDTSNQPLSVAIMKDNEVIAEKTTDIKKNHSVQLMPEIAEILTESKINKTEITDIVVAEGPGSYTGLRIGVTVAKTLAYALNTNLYGVSSLKALASTVKDSTKLLVPIFDARREAVYAGVYQYQDNELITIIDDTYIPIFELIEKLHQLNQPYVFVGFHIEKIKHLLDSDIVEQLPQASSMKQLIQKPENIHSFTPKYHKLSEAERNWLNQQENNLEHHHHHH	not soluble
MKIKWLGHACFLLTSDNGIRVVTDPYDNTVGYKVEKIDAEIVSTSHDHYDHNYVDMVSENAKHVKSEGKTNIDGIEITGVTSFHDDCKGAKRGKNVIFKFKIDGIDVCHLGDLGHVLSDSQVREIGNVDVLLVPVGGVYTIDYKGAVEVMKLVNPKITIPMHYKTPALSFDVDGVENFLSATGGKHIGKQEIELKKDEIENWPKVVALDYQ	soluble
RSFLPPFNEGSFTINVSTLPGISLEESDRMGRMAEEILLSVPEVQTVGRKTGRAELDEHALGVNVSEIEVPFVLKDRSKDEVLADIREKLKVLPGVNIEIGQPISHRIDAMLSGTRANIAIKLFGPDLNRLFAIGNQIKTSVHDVKGVADLNVEQQVERPQLKIVPKREMLAKYGLTPASFAEIVNVMLAGEVVSQVYEGNRSFDLSLKVNDESRESADRIRDLIIDAGGRKIPFAYVADIVSASGPNTINRENVSRKIVVSANVAGRDLRSVVNDIQERIDADITLPEGYHIEYGGQFESEQAASRT	not soluble
GMWWYSSIKYSADKVLLDTTRMYYYFINRTPRMEIGRMIAVLSGSFEFSKQYNKEIQERETDDYEVPRLMKQIAGVNDKGKEQPLSQPYALKSRVLLHAYLSRLPLESQNDALEEDQSYIITRILRFVEEMVNCSQNLMNYSQHTKISIETFDNLLKLQPMFVQALWQKNSPLLQLPHITDYNLQHLRKKRVFSCHDLAVMDAETRRSVLRSLSNEEYRDVMVVLSMMPRLQIETKTVVEGEDDKHELTAGCVVTLKVTMRRSRLIDPQEAGLADQYKKYAEDGGDDELEASEAPEEAAATVEEEEVKKRKPWEKNKPKQKKKKAQGQGQKKFVKKNAPASPDTEKALKEE	not soluble
MPLTDTPPSVPQKPRRGRPRGAPDASLAHQSLIRAGLEHLTEKGYSSVGVDEILKAARVPKGSFYHYFRNKADFGLALIEAYDTYFARLLDQAFLDGSLAPLARLRLFTRMAEEGMARHGFRRGCLVGNLGQEMGALPDDFRAALIGVLETWQRRTAQLFREAQACGELSADHDPDALAEAFWIGWEGAILRAKLELRPDPLHSFTRTFGRHFVTRTQE	soluble
MGSDKIHHHHHHMKLLHIERHTTCLNYVSDYNICFIHQRLFSGGDFKIDNHHHSCILFLLKGEILTSCSEFHDQHIVEGHMVLFPQNDPNQSKSMTETEFILLFFDNQVNLHNKMSIELSAIHLESEKSCFYSLSICPPLRHVLDSICFYLKQKVQCSHMHELKQKEIFMVFGTFYNRTDMAHFLMPITGRDPNFKSFVLENYLQIRNIKQFAQLYHCSERSFNRKFKSCFHDTPYNWILNQKTRHIKGQLANRNIPISEIARTFHFASPSHFTTYCKKRLGITPSEFREKIAK	not soluble
MANQLAAVLGTGQTHYVAKRHDVSMAGLVREAIDRAMEDARVGWDDIDAVVIGKAPDLFEGSMMPELAMSDALGANGKPLLRVHTAGSVGGSTAVVASSLVKSGVHKRVLTVAWEKQSESNAMWALSTPIPFHMPVGAGAGGYFAPHVRSYIRRSGAPDHIGAMVAVKDRLNGSLNPYAHLKQPDITLESVQASQMLWDPIRYDETCPSSDGACAMVIGNEEAAEQVTADGREVAWIHATAMRTEPTTFAGRDQVNPQAGRDAAAALWKAAGIKDPLDEIDVAEIYVPFSWFEPMWLENLGFVSEGEGWKLTEAGETAIGGRLPLNASGGVLSSNPIGASGMIRFAESAMQVMHRAGDHQVKDARKALGHAYGGGSQYFSMWVVGSDRPNN	not soluble
